Laboratory results published in patent US20150368299A1.

Tests used:
[1] = target: platelet factor 4 (PF-4) in Cynomolgus monkey plasma (cynomolgus monkey (Macaca fascicularis)); assay: aligned sandwich ELISA with cynomolgus plasma; AUC of the reference anti-HPF4 antibody over AUC of this antibody
[2] = target: platelet factor 4 (PF-4) in Cynomolgus monkey plasma (cynomolgus monkey (Macaca fascicularis)); assay: sandwich ELISA with cynomolgus plasma; AUC of the reference anti-HPF4 antibody over AUC of this antibody
[3] = target: human platelet factor 4 (HPF4) in human plasma spiked with human PF4 (human) (UniProt P02776); assay: aligned sandwich ELISA with HPF4-spiked human plasma; AUC of the reference anti-HPF4 antibody over AUC of this antibody
[4] = target: human platelet factor 4 (HPF4) in human plasma spiked with human PF4 (human) (UniProt P02776); assay: sandwich ELISA with HPF4-spiked human plasma; AUC of the reference anti-HPF4 antibody over AUC of this antibody
[5] = target: Aβ(1-42) globulomer (human) (UniProt P05067); assay: dot blot with densitometry; Aβ form dotted on nitrocellulose in serial dilution, antibody 0.2 µg/ml; higher value = weaker recognition
[6] = target: Aβ(1-42) monomer in 0.1% NH4OH (human); assay: as above
[7] = target: Aβ(1-40) monomer in 0.1% NaOH (human); assay: as above
Aβ(1-42) fibril (human) = Aβ(1-42) fibril (human) (UniProt P05067); assay: as above
[8] = target: Aβ(1-40) monomer in 0.1% NH4OH (human); assay: as above
[9] = target: Aβ(1-42) monomer in 0.1% NaOH (human); assay: as above
Aβ(1-42) monomer in 0.1% NaOH (human), sequence (peptide, as listed by the source): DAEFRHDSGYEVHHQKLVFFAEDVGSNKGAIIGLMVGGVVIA

human platelet factor 4 (HPF4) in human plasma spiked with human PF4 (human), sequence (P02776 32-101): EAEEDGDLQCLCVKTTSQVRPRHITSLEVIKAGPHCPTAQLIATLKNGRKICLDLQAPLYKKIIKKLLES
platelet factor 4 (PF-4) in Cynomolgus monkey plasma (cynomolgus monkey (Macaca fascicularis)), sequence (chain, as listed by the source): as the sequence (P02776 32-101) above, with I64V counted along it
Aβ(1-40) monomer in 0.1% NH4OH (human), sequence (peptide, as listed by the source): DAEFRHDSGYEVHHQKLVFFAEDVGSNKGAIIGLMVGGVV

| Ratio HPF4/aAβ antibody (PF4 discrimination factor) [1] | Ratio HPF4/aAβ antibody (PF4 discrimination factor) [2] | Ratio HPF4/aAβ antibody (PF4 discrimination factor) [3] | Ratio HPF4/aAβ antibody (PF4 discrimination factor) [4] | dot blot relation of recognition of Aβ(20-42) globulomer to recognition of this Aβ form [5] | dot blot relation of recognition of Aβ(20-42) globulomer to recognition of this Aβ form [6] | dot blot relation of recognition of Aβ(20-42) globulomer to recognition of this Aβ form [7] | dot blot relation of recognition of Aβ(20-42) globulomer to recognition of this Aβ form (Aβ(1-42) fibril (human)) | dot blot relation of recognition of Aβ(20-42) globulomer to recognition of this Aβ form [8] | dot blot relation of recognition of Aβ(20-42) globulomer to recognition of this Aβ form [9] | Substance |
| --- | --- | --- | --- | --- | --- | --- | --- | --- | --- | --- |
| 325 | 517 | 118 | 331 |  |  |  |  |  |  | Monoclonal antibody clone mIgG2a |
| 1 | 1 | 1 | 1 |  |  |  |  |  |  | Anti-HPF4 monoclonal antibody (Abcam Cat. No. ab49735) |
|  |  |  |  | 0.09 | 10 | 20 | 29 | 3 | 10 | Anti-Aβ monoclonal antibody clone 6E10 (Covance cat. no. SIG-39320) |
